Laboratory results taken from patent publication US20030236190A1 (published 2003).
Positions of bridges follow the written chain, without caps; N, C: chain ends. No end group written: not given here.

B1: 20E2 (peptide)
peptide: DYKDFYDAIDQLVRGSARAGGTRD
notes: also called 20E2 (D118)
B2: RP4 (peptide)
peptide: PPWGARFYDAIEQLVFDNL
B3: H2C (peptide)
peptide: FHENFYDWFVQRVSKK
notes: also called H2C (D117)
B4: E8 (peptide)
peptide: GGTVWPGYEWLRNA
B5: RP16 (peptide)
peptide: VMDARDDPFYHKLSELVT
B6: RP15 (peptide)
peptide: SQAGSAFYAWFDQVLRTV
B7: RP9 (peptide)
peptide: GSLDESFYDWFERQLG
notes: also called RP9 minus terminal lysines
B8: G33 (peptide)
peptide: GIISQSCPESFYDWFAGQVSDPWWCW
B9: recombinant peptide surrogate G33 (rG33) (peptide)
peptide: GIISQSCPESFYDWFAGQVSDPWWCW
notes: Recombinant form
B10: D815-6aa-RP9 (peptide)
peptide: WLDQERAWLWCEISGRGCLSGGSGGSGSLDESFYDWFERQLGKK
notes: Site 2-Site 1 dimer peptide, recombinant; also called D815-RP9 (6 aa linker); D815-6-RP9
B11: D815-6aa-G33 (peptide)
peptide: WLDQERAWLWCEISGRGCLSGGSGGSGIISQSCPESFYDWFAGQVSDPWWCW
notes: Site 2-Site 1 dimer peptide, recombinant; also called D815-G33 (6 aa linker); D815-6-G33
B12: recombinant peptide surrogate D815 (rD815) (peptide)
peptide: WLDQERAWLWCEISGRGCLS
modifications: disulfide 11-18 (inferred)
notes: Recombinant form
B13: D815-12aa-RP9 (peptide)
peptide: WLDQERAWLWCEISGRGCLSGGSGGSGGSGGSGSLDESFYDWFERQLGKK
modifications: not fully specified (bridges); cysteine pairing not given here
notes: Site 2-Site 1 dimer peptide, recombinant; also called D815-RP9 (12 aa linker); D815-12-RP9
B14: 20E2A-3-A4-IGFR (peptide)
peptide: AGSVTSFYDAMEQLVATGTSA
B15: 20E2Bβ-3-C7-IR (peptide)
peptide: QSGSGDFYDWLSRLIRGNGDG
modifications: not fully specified (N-terminus, C-terminus)

The binders below were run against T1, soluble human insulin receptor-immunoglobulin heavy chain chimera (sIR-Fc) (human, UniProt P06213 28-956, limits assumed) (assay: fluorescence polarization competition with FITC-RP9 for sIR-Fc).
T1 construct: extracellular domain; also called sIR-Ec; not shown: immunoglobulin heavy chain constant domains

Binder	IC50 [nM]
B1	51
B2	17
B3	66
B4	206
B5	6400
B6	28
B7	24
B8	139

Each binder was assayed against human IGF-1R on FDCP-2 cells (human, UniProt P08069 31-1367) (assay: cell-based or functional assay).

Binder	ED50 Growth [nM]	Ki/ED50	Max Action	IC50 Antag. [nM]
B9	500	2.9	> 50	
B10	50	0.8	> 50%	> 500
B11			< 10%	
B12	500		> 50%	
B13	10000	0.0003	100	
B7		0.5	< 10%	900

Each binder was assayed against T2, Insulin receptor (IR) prepared according to Bass et al., 1996 (human, UniProt P06213 28-956) (assay: phage ELISA; ratio over background for IR divided by that for IGF-1R).
T2 construct: extracellular domain; also called soluble IR (Bass construct); sIR-Fc; not shown: immunoglobulin heavy chain constant domains of the Bass chimera

Binder	IR/IGF-1R ratio comparison [ratio]
B14	0.7
B15	0.5

What follows are binders tested against T3, recombinant human IGF-1R (rhIGF-1R) (human, UniProt P08069 31-935) (assay: TR-FRET competition with b-20E2 for rhIGF-1R).
T3 construct: extracellular domain; Coated on plates in the TRF assay and europium-labelled (LANCE) in the TR-FRET assays; also called rhIGE-1R; Eu3+-rhIGF-1R

Binder	IC50 [nM]
B1	100
B2	8100
B5	961
B6	706
B7	33
B8	178

These binders were tested against T3, recombinant human IGF-1R (rhIGF-1R) (assay: heterogeneous TRF (DELFIA) competition with b-rhIGF-1 for plate-coated rhIGF-1R).
Experimental: (§1) The plates were incubated for 2 hr at RT.

Binder	IC50 [nM]
B9	1450
B10	35.7
B11	624
B12	4080
B13	3.22
B7	417

Each binder was assayed against T4, Soluble IGF-1R (UniProt P08069 31-935, limits assumed) (assay: not given).
T4 construct: extracellular domain; Bought reagent; also called sIGF-1R; insulin-like growth factor receptor

Binder	ratio over background, IGF-1R [ratio over background]
B14	2.5
B15	3.1

The binders below were run against T4, Soluble IGF-1R (assay: phage ELISA; ratio over background for IGF-1R divided by that for IR).

Binder	IGF-1R/IR ratio comparison [ratio]
B14	1.4
B15	2

What follows are binders tested against T3, recombinant human IGF-1R (rhIGF-1R) (assay: ratio of the IC50 at rhIGF-1R (TR-FRET) to the IC50 at sIR-Fc (FP); higher values indicate higher affinity for IR than IGF-1R).

Binder	Binding Ratio IGF-1R/IR
B1	1.9
B2	476
B5	0.15
B6	25
B7	1.4
B8	1.3

Each binder was assayed against T3, recombinant human IGF-1R (rhIGF-1R) (assay: column 'nM Ki app Kd' of Table 15 (IGF-1R summary); values match the TRF competition with b-rhIGF-1 on rhIGF-1R of Table 20).
Experimental: as §1

Binder	Ki [nM]
B9	1450
B10	36
B11	624
B12	4080
B13	3
B7	417

The binders below were run against T3, recombinant human IGF-1R (rhIGF-1R) (assay: TR-FRET competition with b-20E2 for Eu3+-rhIGF-1R).

Binder	IC50 [nM]
B1	104
B3	460
B7	39.3

The binders below were run against T2, Insulin receptor (IR) prepared … (assay: not given).

Binder	ratio over background, IR [ratio over background]
B14	1.8
B15	1.5
